Measurements: PMC6633205, “Cus2 enforces the first ATP-dependent step of splicing by binding to yeast SF3b1 through a UHM–ULM interaction” (RNA, 2019)
Blank lines part the entries; values can stand above or below the molecule they belong to.

How the values were obtained:
[1] = biological target: SF3b1 ULM5 (Homo sapiens) (UniProt O75533); conditions: cited from earlier work
Tat-SF1 (residues 1-360) [2] = biological target: T1, Tat-SF1 (residues 1-360) (human, UniProt O43719 1-360); assay: ITC
T1 chain: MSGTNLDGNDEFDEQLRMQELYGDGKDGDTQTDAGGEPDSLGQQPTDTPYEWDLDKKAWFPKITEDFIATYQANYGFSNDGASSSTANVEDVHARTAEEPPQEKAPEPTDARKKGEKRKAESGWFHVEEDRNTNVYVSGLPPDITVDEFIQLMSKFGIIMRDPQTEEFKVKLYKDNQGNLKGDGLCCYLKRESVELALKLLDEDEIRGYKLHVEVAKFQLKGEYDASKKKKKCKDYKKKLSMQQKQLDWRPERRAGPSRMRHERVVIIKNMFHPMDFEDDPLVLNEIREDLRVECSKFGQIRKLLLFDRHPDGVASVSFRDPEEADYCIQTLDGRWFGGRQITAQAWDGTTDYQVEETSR

[3] = biological target: T2, GB1-Cus2, full length, with N-terminal His-tag and GB1 solubility tag (S. cerevisiae, UniProt P53830 1-285); assay: pull-down; GST-fusion protein or GST (100 µg) immobilised on glutathione agarose, GB1-Cus2 (500 µg in 500 µL) added for 30 min; 100 mM NaCl, 25 mM HEPES pH 7.4, 10% glycerol, 0.1% NP-40; six washes; SDS-PAGE, Coomassie; conditions: both partners purified
T2 construct: also called full-length Cus2 protein; not shown: GB1, N-terminal, kept
T2 sequence (looked up): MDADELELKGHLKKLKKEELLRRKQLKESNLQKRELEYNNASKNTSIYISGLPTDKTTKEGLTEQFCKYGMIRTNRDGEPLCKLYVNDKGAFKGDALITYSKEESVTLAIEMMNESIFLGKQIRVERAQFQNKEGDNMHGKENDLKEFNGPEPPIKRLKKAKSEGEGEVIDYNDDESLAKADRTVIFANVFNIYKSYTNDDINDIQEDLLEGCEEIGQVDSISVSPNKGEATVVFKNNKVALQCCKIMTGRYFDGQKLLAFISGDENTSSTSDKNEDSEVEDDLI

[4] = biological target: T3, Cus2, full length, fused to the GAL4 DNA-binding domain (S. cerevisiae, UniProt P53830 1-285); assay: cell-based or functional assay
T3 sequence (looked up): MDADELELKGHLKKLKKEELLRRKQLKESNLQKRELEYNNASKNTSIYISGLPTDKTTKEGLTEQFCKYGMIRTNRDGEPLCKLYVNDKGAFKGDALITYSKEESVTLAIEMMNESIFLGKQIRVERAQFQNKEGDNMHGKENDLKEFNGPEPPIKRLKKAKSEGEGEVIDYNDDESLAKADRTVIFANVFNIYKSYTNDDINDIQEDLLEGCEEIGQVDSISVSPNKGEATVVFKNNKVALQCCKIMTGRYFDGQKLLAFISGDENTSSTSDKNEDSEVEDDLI

[5] = biological target: T4, Cus2 UHM (residues 177-269) (S. cerevisiae, UniProt P53830 177-269); assay: ITC; apparent; Cus2 or Tat-SF1 proteins titrated with Hsh155 ULM peptide (95-109); 50 mM NaCl, 25 mM HEPES pH 7.4, 0.2 mM TCEP; VP-ITC; three replicates; conditions: both partners purified
T4 construct: Expressed as a GST fusion from a pGEX-6p variant with a TEV cleavage site for the GST tag; also called isolated Cus2 UHM
T4 sequence (looked up): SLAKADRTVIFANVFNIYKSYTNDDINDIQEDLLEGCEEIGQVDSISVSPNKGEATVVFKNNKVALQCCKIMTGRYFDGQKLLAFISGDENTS

[6] = biological target: T5, Cus2 D204K with C-terminal His-tag (S. cerevisiae, UniProt P53830 1-285, D204K); assay: as above; conditions: both partners purified
T5 construct: also called D204K mutant Cus2; recombinant Cus2^D204K; source: expressed and purified the same as wild-type Cus2, at the University of California Berkeley QB3 MacroLab
T5 sequence (looked up): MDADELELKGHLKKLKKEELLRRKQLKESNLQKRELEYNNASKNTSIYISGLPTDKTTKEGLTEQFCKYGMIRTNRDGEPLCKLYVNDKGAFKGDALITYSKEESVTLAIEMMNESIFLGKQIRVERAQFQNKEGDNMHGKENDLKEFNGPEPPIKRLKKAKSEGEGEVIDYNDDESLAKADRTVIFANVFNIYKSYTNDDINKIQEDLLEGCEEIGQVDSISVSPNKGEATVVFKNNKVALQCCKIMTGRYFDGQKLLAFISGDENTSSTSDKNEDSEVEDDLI

Tat-SF1 (residues 1-360) [7] = biological target: T6, Tat-SF1 (residues 1-360) (human, UniProt O43719 1-360); assay: as above; conditions: both partners purified
T6 construct: lacks the divergent acidic C-terminal expansion; Expressed as a GST fusion from a pGEX-6p variant with a TEV cleavage site for the GST tag; also called recombinant Tat-SF1
T6 sequence (looked up): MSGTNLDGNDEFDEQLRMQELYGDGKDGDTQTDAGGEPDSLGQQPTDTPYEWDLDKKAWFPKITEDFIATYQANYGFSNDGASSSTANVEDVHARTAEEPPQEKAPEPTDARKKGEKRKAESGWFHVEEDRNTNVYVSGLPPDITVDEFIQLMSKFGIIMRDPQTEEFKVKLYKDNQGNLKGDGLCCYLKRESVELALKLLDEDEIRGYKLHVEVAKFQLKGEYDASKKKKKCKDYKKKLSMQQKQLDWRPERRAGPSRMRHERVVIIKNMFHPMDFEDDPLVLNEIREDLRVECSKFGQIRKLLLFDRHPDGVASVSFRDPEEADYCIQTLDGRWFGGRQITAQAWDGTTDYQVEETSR

[8] = biological target: T7, Cus2, full length, with C-terminal His-tag (S. cerevisiae, UniProt P53830 1-285); assay: as above; conditions: both partners purified
T7 construct: also called full-length Cus2; recombinant wild-type Cus2
T7 sequence (looked up): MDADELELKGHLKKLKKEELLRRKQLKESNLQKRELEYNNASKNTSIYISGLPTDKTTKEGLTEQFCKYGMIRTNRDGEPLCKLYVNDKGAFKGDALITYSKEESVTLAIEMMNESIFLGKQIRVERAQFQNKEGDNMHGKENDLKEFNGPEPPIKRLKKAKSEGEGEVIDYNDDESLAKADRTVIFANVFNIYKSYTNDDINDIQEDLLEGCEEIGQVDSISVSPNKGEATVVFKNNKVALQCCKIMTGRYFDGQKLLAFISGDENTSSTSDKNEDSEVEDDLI

Molecule: Tat-SF1 (from UniProt O43719)
- Kd [1]: 800 nM

Molecule: ENTQDAVVPRKRKSRWDVKGYEPPDESSTAVKENSDSALVNVEG (domain or fragment, S. cerevisiae, UniProt P49955 86-129, looked up, also called ^GSTHsh155^ULM; Hsh155^ULM) [GST-Hsh155 (86-129)]
- binding result [3]: binds

B3: Hsh155 ULM peptide (residues 95-109) (peptide, UniProt P49955 95-109, looked up)
peptide: RKRKSRWDVKGYEPP
notes: source: synthetic peptide, bought: Biomatik Corp. (98% purity)
- Kd [5]: 18 nM
- stoichiometry N [5]: ~1
- Kd [6]: 1020 nM
- stoichiometry N [6]: ~1
- Kd (Tat-SF1 (residues 1-360) [7]): 229 nM
- stoichiometry N (Tat-SF1 (residues 1-360) [7]): ~1
- Kd [8]: 32 nM
- stoichiometry N [8]: ~1

Continued, values first:

- Kd (Tat-SF1 (residues 1-360) [2]): 800 nM
Molecule: KRKSRWDETPASQMGGSTP [ULM5]

- Kd (Tat-SF1 (residues 1-360) [2]): 1800 nM
B1: SF3b1 ULM (protein)
chain: SQPPSKRKRRWDQTADQTPGATPKKLSSWDQAETPGHTPSLRWDETPGRAKGSETPGATPGSKIWDPTPSHTPAGAATPGRGDTPGHATPGHGGATSSARKNRWDETPKTERDTPGHGSGWAETPRTDRGGDSIGETPTPGASKRKSRWDETPAS

- pre-mRNA coimmunoprecipitated with Lea1-TAP in the absence of ATP (ATP-independent pre-spliceosome formation) in Hsh155^RW-DA extract relative to wild-type extract [4]: ~11 fold
B2: Hsh155 R100D, W101A fused to the GAL4 activation domain (natural protein, S. cerevisiae, UniProt P49955 1-971, looked up)
chain: MSHPIQFVNANNSDKSHQLGGQYSIPQDLRENLQKEAARIGENEKDVLQEKMETRTVQNREDSYHKRRFDMKFEPDSDTQTVTSSENTQDAVVPRKRKSDADVKGYEPPDESSTAVKENSDSALVNVEGIHDLMFFKPSDHKYFADVISKKPIDELNKDEKKERTLSMLLLKIKNGNTASRRTSMRILTDKAVTFGPEMIFNRLLPILLDRSLEDQERHLMIKTIDRVLYQLGDLTKPYVHKILVVAAPLLIDEDPMVRSTGQEIITNLSTVAGLKTILTVMRPDIENEDEYVRNVTSRAAAVVAKALGVNQLLPFINAACHSRKSWKARHTGIKIVQQIGILLGIGVLNHLTGLMSCIKDCLMDDHVPVRIVTAHTLSTLAENSYPYGIEVFNVVLEPLWKGIRSHRGKVLSSFLKAVGSMIPLMDPEYAGYYTTEAMRIIRREFDSPDDEMKKTILLVLQKCSAVESITPKFLREEIAPEFFQKFWVRRVALDRPLNKVVTYTTVTLAKKLGCSYTIDKLLTPLRDEAEPFRTMAVHAVTRTVNLLGTADLDERLETRLIDALLIAFQEQTNSDSIIFKGFGAVTVSLDIRMKPFLAPIVSTILNHLKHKTPLVRQHAADLCAILIPVIKNCHEFEMLNKLNIILYESLGEVYPEVLGSIINAMYCITSVMDLDKLQPPINQILPTLTPILRNKHRKVEVNTIKFVGLIGKLAPTYAPPKEWMRICFELLELLKSTNKEIRRSANATFGFIAEAIGPHDVLVALLNNLKVQERQLRVCTAVAIGIVAKVCGPYNVLPVIMNEYTTPETNVQNGVLKAMSFMFEYIGNMSKDYIYFITPLLEDALTDRDLVHRQTASNVITHLALNCSGTGHEDAFIHLMNLLIPNIFETSPHAIMRILEGLEALSQALGPGLFMNYIWAGLFHPAKNVRKAFWRVYNNMYVMYQDAMVPFYPVTPDNNEEYIEELDLVL
